Assay results published in patent publication US20150291692A1 (INNATE PHARMA, published 2015).
Blank lines part the entries; values can stand above or below the binder they belong to.

Experiments:
[1] = target: T1, KIR3DL2 mutant M11 (P179T;S181T) (human, UniProt P43630 22-455); experiment: flow cytometry on HEK-293T cells transfected with the mutant; - means substantially complete loss of binding
T1 construct: Expressed on transfected HEK-293T cells; also called Number 11; mutant 11

[2] = target: T2, KIR3DL2 mutant M11A1 (V178A;H180S) (human, UniProt P43630 22-455); experiment: as above
T2 construct: Expressed on transfected HEK-293T cells; also called Number 24 (11A1); mutant 11A1

[3] = target: T3, KIR3DL2 mutant M8 + 11 (V127I;P179T;S181T) (human, UniProt P43630 22-455); experiment: as above
T3 construct: Expressed on transfected HEK-293T cells; also called Number 23 (8 + 11)

[4] = target: T4, KIR3DL2 mutant M5 + 11 (P66T;P179T;S181T) (human, UniProt P43630 22-455); experiment: as above
T4 construct: Expressed on transfected HEK-293T cells; also called Number 22 (5 + 11)

[5] = target: T5, wild-type human KIR3DL2 (allele *002) expressed on transfected HEK-293T cells (human, UniProt P43630 22-455); experiment: flow cytometry on transfected HEK-293T cells
T5 construct: also called HEK-293T/KIR3DL2; WTaKIR3DL2

[6] = target: T6, KIR3DL2 mutant M11A6 (I150A;M128A) (human, UniProt P43630 22-455); experiment: flow cytometry on HEK-293T cells transfected with the mutant; + no significant loss of binding, ± decrease
T6 construct: Expressed on transfected HEK-293T cells; also called Number 29 (11A6)

[7] = target: T7, KIR3DL2 mutant M8 (V127I) (human, UniProt P43630 22-455); experiment: as above
T7 construct: Expressed on transfected HEK-293T cells; also called Number 8; Mutant 8

[8] = target: T8, KIR3DL2 mutant M11A4 (E130S;H131S;R145S) (human, UniProt P43630 22-455); experiment: as above
T8 construct: Expressed on transfected HEK-293T cells; also called Number 27 (11A4)

[9] = target: T9, KIR3DL2 mutant M11A5 (V147A;Q149S) (human, UniProt P43630 22-455); experiment: as above
T9 construct: Expressed on transfected HEK-293T cells; also called Number 28 (11A5)

[10] = target: T10, KIR3DL2 mutant M9 (L164M;P166L;V167A) (human, UniProt P43630 22-455); experiment: as above
T10 construct: Expressed on transfected HEK-293T cells; also called Number 9

[11] = target: T11, KIR3DL2 mutant M11A3 (N99S;H100S;Q184A) (human, UniProt P43630 22-455); experiment: as above
T11 construct: Expressed on transfected HEK-293T cells; also called Number 26 (11A3)

[12] = target: T12, KIR3DL2 mutant M7 (L113V;T118R) (human, UniProt P43630 22-455); experiment: as above
T12 construct: Expressed on transfected HEK-293T cells; also called Number 7

[13] = target: T13, KIR3DL2 mutant M10 (R136K;E141K) (human, UniProt P43630 22-455); experiment: as above
T13 construct: Expressed on transfected HEK-293T cells; also called Number 10

[14] = target: T14, KIR3DL2 at the surface of HUT78 Sezary Syndrome cell line (human, UniProt P43630 22-455); experiment: flow cytometry competition on HUT78 cells; naked antibody titrated against 15C11-PE (5 µg/ml)
T14 construct: whole, on cells; Two alleles are expressed

[15] = target: T15, NK cells, including normal KIR3DL2+ NK cells (Homo sapiens, UniProt P43630); experiment: flow cytometry of whole blood of a Sezary Syndrome patient, antibody + GaM-PE against CD4; lower gate (CD4-negative NK cells)
T15 construct: full-length receptor on the cell surface; also called gate NK GaM PE+; KIR3DL2 on CD4-negative NK cells in the blood of the Sezary Syndrome patient

[16] = target: T16, KIR2DL1 on transfected BWZ cells (UniProt P43626 22-348, limits assumed); experiment: flow cytometry on transfected BWZ cells
T16 construct: whole, on cells

[17] = target: T17, KIR2DS2 on transfected BWZ cells (UniProt P43631 22-304, limits assumed); experiment: flow cytometry on transfected BWZ cells
T17 construct: whole, on cells

[18] = target: T18, KIR2DS4 on transfected BWZ cells (UniProt P43632 22-304, limits assumed); experiment: flow cytometry on transfected BWZ cells
T18 construct: whole, on cells

[19] = target: T19, KIR2DL3 on transfected BWZ cells (UniProt P43628 22-341, limits assumed); experiment: flow cytometry on transfected BWZ cells
T19 construct: whole, on cells

[20] = target: T20, KIR2DS1 on transfected BWZ cells (UniProt Q14954 22-304, limits assumed); experiment: flow cytometry on transfected BWZ cells
T20 construct: whole, on cells; also called BWZ-KIR2DS1

[21] = target: T6, KIR3DL2 mutant M11A6 (I150A;M128A); experiment: flow cytometry on HEK-293T cells transfected with the mutant; - means substantially complete loss of binding
[22] = target: T8, KIR3DL2 mutant M11A4 (E130S;H131S;R145S); experiment: as above
[23] = target: T21, KIR3DL2 recombinant protein (R&D Systems) (human, UniProt P43630 28-340); experiment: SPR (Biacore T100), antibody injected over immobilised recombinant KIR3DL2, bivalent affinity, pH 7.2
T21 construct: Bought protein; also called rec KIR3DL2; recombinant KIR3DL2-Fc fusion protein; not shown: Fc part of the bought fusion protein; not described

[24] = target: T1, KIR3DL2 mutant M11 (P179T;S181T); experiment: flow cytometry on HEK-293T cells transfected with the mutant; + no significant loss of binding, ± decrease
[25] = target: T2, KIR3DL2 mutant M11A1 (V178A;H180S); experiment: as above
[26] = target: T3, KIR3DL2 mutant M8 + 11 …; experiment: as above
[27] = target: T22, KIR3DL2 on fresh Sezary Syndrome cells of patients (human, UniProt P43630 22-455); experiment: flow cytometry of whole blood of a Sezary Syndrome patient, antibody + GaM-PE against CD4; upper gate (CD4+ KIR3DL2+ leukemic Sezary cells)
T22 construct: whole, on cells; also called SS cells

[28] = target: T21, KIR3DL2 recombinant protein (R&D …); experiment: SCK kinetic method
[29] = target: T23, KIR3DL1 expressed on cells (human, UniProt P43629 22-444); experiment: flow cytometry on HEK KIR3DL1 cells (row HEK-KIR3DL1)
T23 construct: also called HEK-293T/KIR3DL1

[30] = target: T24, KIR3DL2 mutant MD0/HLA1 (F9S, S11A) (human, UniProt P43630 22-455); experiment: flow cytometry on HEK-293T cells transfected with the mutant
T24 construct: Expressed on transfected HEK-293T cells; also called Number 31 (D0-HLA1)

[31] = target: T25, KIR3DL2 mutant 2A2 (Q56S, E57A) (human, UniProt P43630 22-455); experiment: as above
T25 construct: Expressed on transfected HEK-293T cells; also called Number 34 (1 + 2 A2)

[32] = target: T26, KIR3DL2 mutant 1 (R13W, A25T, Q27R) (human, UniProt P43630 22-455); experiment: as above
T26 construct: Expressed on transfected HEK-293T cells; also called Number 1

[33] = target: T27, KIR3DL2 mutant 2 (I60N, G62S) (human, UniProt P43630 22-455); experiment: as above
T27 construct: The running text prints 160N for I60N; Expressed on transfected HEK-293T cells; also called Number 2

T23 sequence (P43629 22-444 limits assumed): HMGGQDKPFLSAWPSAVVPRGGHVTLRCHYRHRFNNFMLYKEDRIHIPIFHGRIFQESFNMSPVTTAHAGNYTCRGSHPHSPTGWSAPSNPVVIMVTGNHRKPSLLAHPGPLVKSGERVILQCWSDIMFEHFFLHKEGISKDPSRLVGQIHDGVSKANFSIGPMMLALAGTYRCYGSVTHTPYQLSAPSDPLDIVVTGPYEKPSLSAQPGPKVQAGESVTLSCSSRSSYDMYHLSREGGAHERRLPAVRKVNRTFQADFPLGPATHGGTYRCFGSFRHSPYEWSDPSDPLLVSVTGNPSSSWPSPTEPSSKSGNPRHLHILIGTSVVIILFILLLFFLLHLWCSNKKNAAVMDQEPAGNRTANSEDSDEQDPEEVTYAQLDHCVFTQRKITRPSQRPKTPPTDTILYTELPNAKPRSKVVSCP
T17 sequence (P43631 22-304 limits assumed): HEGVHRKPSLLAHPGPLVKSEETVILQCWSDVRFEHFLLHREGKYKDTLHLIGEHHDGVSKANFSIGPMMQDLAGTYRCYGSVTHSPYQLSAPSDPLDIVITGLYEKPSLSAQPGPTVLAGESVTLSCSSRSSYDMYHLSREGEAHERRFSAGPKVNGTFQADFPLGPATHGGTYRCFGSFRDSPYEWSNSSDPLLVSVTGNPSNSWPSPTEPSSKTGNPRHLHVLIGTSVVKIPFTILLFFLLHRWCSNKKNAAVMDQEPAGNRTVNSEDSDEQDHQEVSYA
T16 sequence (P43626 22-348 limits assumed): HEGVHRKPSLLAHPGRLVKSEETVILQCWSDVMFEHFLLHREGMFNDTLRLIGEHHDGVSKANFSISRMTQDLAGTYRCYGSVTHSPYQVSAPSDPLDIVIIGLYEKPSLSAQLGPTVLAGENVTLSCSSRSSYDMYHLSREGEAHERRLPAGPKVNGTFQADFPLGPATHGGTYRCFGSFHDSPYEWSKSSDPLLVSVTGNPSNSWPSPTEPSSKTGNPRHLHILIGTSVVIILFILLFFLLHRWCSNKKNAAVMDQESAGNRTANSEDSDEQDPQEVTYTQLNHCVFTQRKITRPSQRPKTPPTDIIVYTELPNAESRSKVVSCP
T18 sequence (P43632 22-304 limits assumed): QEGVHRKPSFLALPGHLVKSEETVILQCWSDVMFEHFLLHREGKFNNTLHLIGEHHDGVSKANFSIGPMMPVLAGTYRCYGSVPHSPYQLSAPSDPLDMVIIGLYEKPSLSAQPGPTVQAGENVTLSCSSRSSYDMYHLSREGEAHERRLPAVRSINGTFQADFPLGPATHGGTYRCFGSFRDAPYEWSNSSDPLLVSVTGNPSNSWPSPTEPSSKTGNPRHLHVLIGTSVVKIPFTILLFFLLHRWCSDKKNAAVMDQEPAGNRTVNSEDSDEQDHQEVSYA
T19 sequence (P43628 22-341 limits assumed): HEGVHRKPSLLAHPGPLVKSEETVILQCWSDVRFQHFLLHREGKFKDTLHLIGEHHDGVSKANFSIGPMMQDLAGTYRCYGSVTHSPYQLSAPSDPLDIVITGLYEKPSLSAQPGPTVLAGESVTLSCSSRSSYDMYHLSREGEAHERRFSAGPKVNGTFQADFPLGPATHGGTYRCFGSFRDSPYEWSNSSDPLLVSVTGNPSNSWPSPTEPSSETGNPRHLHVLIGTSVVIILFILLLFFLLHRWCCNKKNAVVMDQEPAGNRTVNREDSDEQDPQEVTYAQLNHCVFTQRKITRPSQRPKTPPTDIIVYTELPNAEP
T20 sequence (Q14954 22-304 limits assumed): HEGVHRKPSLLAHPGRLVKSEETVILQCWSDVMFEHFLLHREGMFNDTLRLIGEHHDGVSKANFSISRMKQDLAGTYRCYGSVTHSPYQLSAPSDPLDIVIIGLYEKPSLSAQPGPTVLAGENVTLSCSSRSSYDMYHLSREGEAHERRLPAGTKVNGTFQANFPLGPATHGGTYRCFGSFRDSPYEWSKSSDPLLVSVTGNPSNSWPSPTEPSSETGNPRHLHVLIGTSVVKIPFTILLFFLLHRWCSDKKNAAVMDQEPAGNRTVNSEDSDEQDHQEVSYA

binding result [1]: no binding
binding result [2]: no binding
binding result [3]: no binding
binding result [4]: no binding
binding result [5]: binds
binding result [6]: binds
binding result [7]: binds
binding result [8]: binds
binding result [9]: binds
binding result [10]: binds
binding result [11]: binds
binding result [12]: binds
binding result [13]: binds
B1: antibody 12B11 (antibody, V domains shown)
VH: QLVQSGPELKNPGETVKISCKASGYTFTNYGMNWVKQAPGKGLKWMGWINTYTGEPTYADDFKGRFAFSLETSASTAYLQINNLKNEDTATYFCAHGPWLAYWGQGTLVTVS
VL: DIKMTQSPSSMYASLGERVTITCKASQDINVYLSWFQQKPGKSPKTLIYRAIRLVDGVPSRFSGSGSGQDYSLTISSLDYEDMGIYYCLQYDELPYTFGGGTKLEIE

IC50 (read off the curve) [14]: ~0.4 µg/mL
% of cells in gate NK GaM PE+ [15]: 12.7%
binding result [16]: no binding (tested: 10 µg/ml)
binding result [17]: no binding (tested: 10 µg/ml)
binding result [18]: no binding (tested: 10 µg/ml)
binding result [19]: no binding (tested: 10 µg/ml)
binding result [20]: no binding (tested: 10 µg/ml)
binding result [21]: no binding
binding result [22]: no binding
Kd [23]: 0.78 nM
binding result [24]: binds
binding result [25]: binds
binding result [26]: binds
binding result [9]: binds
binding result [10]: binds
binding result [11]: binds
binding result [12]: binds
binding result [13]: binds
% of cells in gate CD4 GaM PE+ [27]: 7.6%
Kd [28]: 0.37 nM
koff [28]: 0.00011 s⁻¹
binding result [29]: no binding
B2: antibody 15C11 (antibody, mouse IgG2a, V domains shown)
VH: EVKLEESGGGLVQPGGSMKLSCAASGFTFSDAWMDWVRQSPEKGLEWVAEIRSKANNHATYYAESVKGRFTISRDDSKSSVYLRMNSLRAEDTGIYYCTGGYYPVYWGQGTLVTVSA
VL: DIQMTQSPSSLSASLGGKVTITCKASQDINKNIAWYQHKPGKGPRLLIHYTSTLQPGFPSRFSGSGSGRDYSFSISNLEPEDLATYYCLQYDNLLTFGGGTKLEIK
notes: also called M-K32-15C11; 15C11-PE (PE-labelled form)

binding result [30]: binds
binding result [31]: binds
binding result [32]: no binding
binding result [33]: no binding
B3: antibody 13H1 (antibody, V domains shown)
VH: EVQLQQSGPELVKPGASMKISCKASHYSFIGYTMNWVKQRHGKNLEWIGLINPYNGDTTYNQKFKGKASLTVDKSSSTAYMEILSLTSEDSAVYYCARENWGYPYAMDYWGQGTSVTVS
VL: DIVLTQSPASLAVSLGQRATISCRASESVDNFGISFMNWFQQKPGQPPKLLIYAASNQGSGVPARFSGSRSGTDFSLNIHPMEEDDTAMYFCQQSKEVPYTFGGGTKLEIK
